Reference: publication PMC6955223, “The adaptor proteins HAP1a and GRIP1 collaborate to activate the kinesin-1 isoform KIF5C” (Journal of Cell Science, 2019)

Molecular target: T1, KIF5C–Halo (UniProt P28738 1-956, HaloTag TMR ligand on the HaloTag)
T1 construct: kinesin-1 heavy chain KIF5C; construct from Twelvetrees et al., 2016; also called KIF5C labelled with HaloTag TMR ligand; motor; source: COS cells, transfected, in lysate
T1 sequence (looked up): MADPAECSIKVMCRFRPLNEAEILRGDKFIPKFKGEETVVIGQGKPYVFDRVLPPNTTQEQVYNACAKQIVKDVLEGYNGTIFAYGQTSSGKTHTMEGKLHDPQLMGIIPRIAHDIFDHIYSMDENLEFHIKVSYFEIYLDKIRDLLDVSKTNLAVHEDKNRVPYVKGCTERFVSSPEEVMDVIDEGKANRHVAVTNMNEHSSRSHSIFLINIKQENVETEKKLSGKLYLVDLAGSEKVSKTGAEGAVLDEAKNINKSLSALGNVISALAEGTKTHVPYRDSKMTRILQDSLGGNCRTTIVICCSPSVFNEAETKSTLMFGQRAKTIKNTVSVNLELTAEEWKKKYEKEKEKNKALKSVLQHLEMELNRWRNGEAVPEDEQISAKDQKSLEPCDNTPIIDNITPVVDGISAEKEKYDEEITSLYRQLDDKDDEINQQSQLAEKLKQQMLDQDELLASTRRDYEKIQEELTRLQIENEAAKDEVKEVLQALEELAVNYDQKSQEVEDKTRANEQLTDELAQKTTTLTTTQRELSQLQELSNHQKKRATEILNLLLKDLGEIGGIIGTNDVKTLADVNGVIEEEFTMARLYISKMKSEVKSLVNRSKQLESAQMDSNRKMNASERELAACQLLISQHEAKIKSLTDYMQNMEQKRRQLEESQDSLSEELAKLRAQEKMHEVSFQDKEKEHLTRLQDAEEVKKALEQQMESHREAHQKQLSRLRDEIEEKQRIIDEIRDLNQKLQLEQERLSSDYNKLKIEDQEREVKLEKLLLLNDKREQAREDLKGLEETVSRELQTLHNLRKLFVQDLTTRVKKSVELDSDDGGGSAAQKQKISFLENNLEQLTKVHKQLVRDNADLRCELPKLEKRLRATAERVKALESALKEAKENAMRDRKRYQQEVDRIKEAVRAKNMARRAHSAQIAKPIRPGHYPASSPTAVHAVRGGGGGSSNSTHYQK
Assay: counting of GFP photobleaching steps (TIRFM); motor–adaptor complexes from mixed cell lysates immobilised on microtubules with 15 mM AMP-PNP instead of ATP; GFP-labelled HAP1a and GRIP1 both present; bleaching steps counted for each spot
Details: partners not purified

B1: GFP-labelled HAP1a (natural protein, rat, UniProt P54256-2 1-599, looked up)
chain: MRPKDQVQSSAGDGTGSGDPATGTPTTQPAADPAPEPSAEPKPAPAQGTGSGQKSGSRTKTGGSFCRSRIRGDSDAPWTRYIFQGPYGPRATGLGTGRAEGIWKTPAAYIGRRPGVSGPERAAFIRELQEALCPNPLPRKKITEDDIKVMLYLLEEKERDLNTAARIGQSLVKQNSVLMEENNKLETMLGSAREEILHLRKQVNLRDDLLQLYSDSDDDEEDEEDEEEEEGEEEEREGQRDQDQQHDHPYGAPKPPPKAETLHHCPQLEALKQKLKLLEEENDHLREEASHLDNLEDKEQMLILECVEQFSEASQQMAELSEVLVLRLEGYERQQKEITQLQAEITKLQQRCQSYGAQTEKLQQQLASEKGVHPESLRAGSHMQDYGSRPRERQEDGKSHRQRSSMPAGSVTHYGYSVPLDALPSFPETLAEELRTSLRKFITDPAYFMERCDTRCREERKKEQGTMPPPPVQDLKPPEDFEAPEELVPEEELGAIEEVGTAEDGPAEETEQASEETEAWEEVEPEVDEATRMNVVVSALEASGLGPSHLDMKYVLQQLSNWQDAHSKRQQKQKVVPKGECSRRGHPPASGTSYRSSTL
notes: huntingtin-associated protein 1, rodent isoform HAP1a; Construct not described in the methods; named only in the sentence on photobleaching; source: cell lysate (COS cells as for the motility assay)
- stoichiometry N: 2 HAP1a molecules per motor
